Results: patent US20070037210A1 (VALO HSJ LIMITED PARTNERSHIP, published 2007)
Non-standard residues stand in square brackets, D forms with d. No end group written: not given here.

B1: APG-201 (peptide)
peptide: [dS][dL][dF][dV][dP][dR][dP][dE][dR][dK]
B2: API-101 (peptide)
peptide: APRYTVELA
B3: API-103 (peptide)
peptide: MKLPVHKLY
B4: API-106 (peptide)
peptide: VGSPKNAVPPV
B5: APG-202 (peptide)
peptide: [dE][dS][dD][dV][dL][dH][dF][dT][dS][dT]
B6: APG-204 (peptide)
peptide: [dL][dR][dK][dY][dA][dD]G[dT][dL]

How the values were obtained:
[1] = target: Insulin-like growth factor-1 receptor (IGF-1R) (human, UniProt P08069 31-1367); experiment: cell-based or functional assay
Sequence of Insulin-like growth factor-1 receptor (IGF-1R) (P08069 31-1367): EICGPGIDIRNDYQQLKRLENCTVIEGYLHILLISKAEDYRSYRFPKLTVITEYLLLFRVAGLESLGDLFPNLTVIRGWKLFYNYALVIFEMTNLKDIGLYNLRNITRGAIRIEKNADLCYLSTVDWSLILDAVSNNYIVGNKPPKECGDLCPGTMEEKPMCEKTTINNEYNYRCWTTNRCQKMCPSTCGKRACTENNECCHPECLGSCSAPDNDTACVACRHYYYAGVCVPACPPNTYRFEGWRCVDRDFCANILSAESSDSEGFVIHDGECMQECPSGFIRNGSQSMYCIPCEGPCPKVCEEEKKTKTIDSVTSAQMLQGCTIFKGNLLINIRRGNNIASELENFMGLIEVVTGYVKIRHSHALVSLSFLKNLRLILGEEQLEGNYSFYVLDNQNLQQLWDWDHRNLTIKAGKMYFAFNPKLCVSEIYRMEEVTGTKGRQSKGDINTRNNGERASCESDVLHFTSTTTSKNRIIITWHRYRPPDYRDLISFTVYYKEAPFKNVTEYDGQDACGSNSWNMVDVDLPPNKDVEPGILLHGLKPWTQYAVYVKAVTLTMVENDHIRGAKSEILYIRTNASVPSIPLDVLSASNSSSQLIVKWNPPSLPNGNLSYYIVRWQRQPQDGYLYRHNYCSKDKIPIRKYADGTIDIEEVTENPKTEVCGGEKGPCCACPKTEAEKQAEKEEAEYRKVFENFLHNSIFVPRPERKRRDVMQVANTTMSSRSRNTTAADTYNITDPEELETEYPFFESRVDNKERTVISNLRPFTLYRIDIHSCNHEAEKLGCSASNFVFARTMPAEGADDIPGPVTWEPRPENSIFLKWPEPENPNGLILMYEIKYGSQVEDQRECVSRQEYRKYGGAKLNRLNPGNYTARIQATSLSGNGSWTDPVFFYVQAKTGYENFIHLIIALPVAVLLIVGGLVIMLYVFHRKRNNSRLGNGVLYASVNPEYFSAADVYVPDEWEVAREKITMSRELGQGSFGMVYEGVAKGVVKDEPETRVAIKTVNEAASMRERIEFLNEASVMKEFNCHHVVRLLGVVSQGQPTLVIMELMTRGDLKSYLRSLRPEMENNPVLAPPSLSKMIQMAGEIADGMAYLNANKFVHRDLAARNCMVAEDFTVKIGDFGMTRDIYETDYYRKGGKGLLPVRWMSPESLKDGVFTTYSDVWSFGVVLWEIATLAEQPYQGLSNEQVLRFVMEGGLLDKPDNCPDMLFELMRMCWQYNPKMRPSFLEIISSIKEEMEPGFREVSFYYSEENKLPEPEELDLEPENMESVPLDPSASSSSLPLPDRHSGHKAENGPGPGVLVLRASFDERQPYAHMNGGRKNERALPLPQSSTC

[2] = target: T1, Interleukin-1 receptor accessory protein (IL-1RacP), on A549 carcinoma cells (human, UniProt Q9NPH3 21-570); experiment: cell-based or functional assay
T1 sequence (looked up): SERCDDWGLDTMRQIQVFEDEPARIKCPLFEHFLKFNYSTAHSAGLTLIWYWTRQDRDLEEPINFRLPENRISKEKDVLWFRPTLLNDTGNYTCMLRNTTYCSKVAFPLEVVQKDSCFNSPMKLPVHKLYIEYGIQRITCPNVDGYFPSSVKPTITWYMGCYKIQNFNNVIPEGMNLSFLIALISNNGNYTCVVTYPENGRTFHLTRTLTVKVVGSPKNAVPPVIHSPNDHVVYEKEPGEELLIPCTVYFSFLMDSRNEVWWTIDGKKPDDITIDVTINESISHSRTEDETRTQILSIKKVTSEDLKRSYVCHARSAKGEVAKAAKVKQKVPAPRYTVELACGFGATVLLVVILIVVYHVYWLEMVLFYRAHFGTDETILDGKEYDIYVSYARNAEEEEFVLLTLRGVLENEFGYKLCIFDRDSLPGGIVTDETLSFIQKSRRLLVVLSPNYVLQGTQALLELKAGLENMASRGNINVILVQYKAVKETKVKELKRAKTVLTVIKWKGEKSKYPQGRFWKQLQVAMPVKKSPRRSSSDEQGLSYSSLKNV

Binder	IGF-1 induced proliferation in A549 carcinoma cells, 3H-thymidine incorporation [1] [nM]	IL-1 induced proliferation in A549 carcinoma cells, 3H-thymidine incorporation [2] [nM]
B1	1000	–
B2	–	1000
B3	–	1000
B4	–	10000
B5	10	–
B6	10	–
